B1: N410-14Fc (human Notch4 EGF-like repeats 10-14 fused to human IgG Fc) (Fc fusion)
chain: LEDMCLSQPCHGDAQCSTNPLTGSTLCLCQPGYSGPTCHQDLDECLMAQQGPSPCEHGGSCLNTPGSFNCLCPPGYTGSRCEADHNECLSQPCHPGSTCLDLLATFHCLCPPGLEGQLCEVETNECASAPCLNHADCHDLLNGFQCICLPGFSGTRCEEDIDECRSSPCANGGQCQDQPGAFHCKCLPGFEGPRCQ
notes: Produced in HEK293 cells; also called Notch4 peptibody; Notch4 decoy; not shown: human IgG Fc
B2: N110-14Fc (human Notch1 EGF-like repeats 10-14 fused to human IgG Fc) (Fc fusion)
chain: ARGPRCISNPCNEGSNCDTNPVNGKAICTCPSGYTGPACSQDVDECSLGANPCEHAGKCINTLGSFECQCLQGYTGPRCEIDVNECVSNPCQNDATCLDQIGEFQCICMPGYEGVHCEVNTDECASSPCLHNGRCLDKINEFQCECPTGFTGHLCQYDVDECASTPCKNGAKCLDGPNTYTCVCTEGYTGTHCE
notes: Produced in HEK293 cells; also called Notch1 peptibody; Notch1 decoy; not shown: human IgG Fc

What was measured:
[1] = molecular target: T1, hDLL4-Fc (Sino Biologics) (human, UniProt Q9NR61 27-524, limits assumed); assay: SPR (Biacore T200), hDLL4-Fc on the chip, decoy as analyte, KD = kd/ka
T1 construct: Bought from Sino Biologics; also called Recombinant Fc-tagged hDLL4; recombinant hDLL4; not shown: Fc tag of the bought protein
Description: (§1) Affinity Analysis. The binding kinetics of N1₁₀₋₁₄Fc and N4₁₀₋₁₄Fc were analyzed using a Surface Plasmon Resonance (SPR)-based assay on the BIACORE™ T200 system (GE Healthcare). Human IgG Fc (Sino Biologics) was first immobilized on a CM5 biosensor chip. Subsequently, an appropriate concentration of hDLL4-Fc (Sino Biologics) and hJAG1-Fc (Sino Biologics) was captured to the surface at a Response Unit (RU) of up to 20,000. Various concentrations of N1₁₀₋₁₄Fc and N4₁₀₋₁₄Fc were then passed through the chip with running buffer (1×HBS-N (10 mM HEPES, 150 mM NaCl) with 0.005% polysorbate 20, 1 mM CaCl₂), 2 mM MgCl₂, PH 7.4). After each reaction, the captured ligands and analyte were removed by regeneration buffer (1×HBS-N (10 mM HEPES, 150 mM NaCl) with 0.005% polysorbate 20, 1 mM CaCl₂), 2 mM MgCl₂, pH 7.4). The whole reaction was conducted at 25° C. and a flow rate of 25 μl/min. Sensorgrams of each concentration were obtained and analyzed by BIACORE™ evaluation software (GE Healthcare). The equilibrium constant KD was calculated from the ratio of the dissociation rate constant kd to the association rate constant kₐ (kd/kₐ).
Surface plasmon resonance (SPR) spectroscopy was used to characterize and quantify the interactions between these proteins. […]

[2] = molecular target: T1, hDLL4-Fc (Sino Biologics); assay: SPR (Biacore T200), hDLL4-Fc on the chip, decoy as analyte, multi-cycle kinetics, 25 C
Description: as §1
Surface plasmon resonance (SPR) spectroscopy was used to characterize and quantify the interactions between these proteins. Recombinant Fc-tagged hDLL4 and hJAG1 were immobilized on the sensor chip using amine coupling and multi-cycle kinetic experiments were performed using increasing concentrations of either N1₁₀₋₁₄Fc or N4₁₀₋₁₄Fc. As a control, recombinant IgG Fc was immobilized on the sensor chip.

T1 sequence (Q9NR61 27-524 limits assumed): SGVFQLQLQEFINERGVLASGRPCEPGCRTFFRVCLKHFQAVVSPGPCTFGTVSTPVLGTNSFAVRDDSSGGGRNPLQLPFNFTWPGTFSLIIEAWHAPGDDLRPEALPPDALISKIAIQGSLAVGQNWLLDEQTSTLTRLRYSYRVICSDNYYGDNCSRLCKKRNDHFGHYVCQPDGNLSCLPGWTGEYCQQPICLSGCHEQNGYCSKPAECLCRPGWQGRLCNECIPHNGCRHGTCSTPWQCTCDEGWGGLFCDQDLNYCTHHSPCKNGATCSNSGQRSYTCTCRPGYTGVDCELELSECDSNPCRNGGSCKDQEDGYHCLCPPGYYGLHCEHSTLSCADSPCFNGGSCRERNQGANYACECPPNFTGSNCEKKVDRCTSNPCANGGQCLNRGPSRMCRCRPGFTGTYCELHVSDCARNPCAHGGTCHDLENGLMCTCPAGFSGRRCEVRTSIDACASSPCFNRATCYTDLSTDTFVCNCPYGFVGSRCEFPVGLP

| Binder | Kd [1] | koff [2] | kon [2] |
| --- | --- | --- | --- |
| B1 | 962 nM | 0.0099 s⁻¹ | 10300 M⁻¹ s⁻¹ |
| B2 | 605 nM | 0.019 s⁻¹ | 31500 M⁻¹ s⁻¹ |

From US20250223332A1 (BOARD OF TRUSTEES OF THE UNIVERSITY OF ILLINOIS, published 2025)
